Test results as given in paper PMC5684232.
“And” between values parts separate entries of the source, which are not always exact repeats. Identical values can stand only once.

Legend:
[1] = biological target: human proteasome α7 subunit, wild type (self-assembled homo-tetradecamer) (human) (UniProt P25788); assay: high-speed atomic force microscopy (HS-AFM); α7 adsorbed on APTES-mica, α6 added to the observation buffer to 1 μM; 20 mM Tris-HCl (pH 8.0), 150 mM NaCl; more than 20 min after the addition of α6; 10 fps, at most 1000 frames (100 s)
[2] = biological target: human proteasome α7 subunit, wild type (self-assembled homo-tetradecamer) (human) (UniProt P25788); assay: high-speed atomic force microscopy (HS-AFM); α7 alone adsorbed on APTES-mica; 20 mM Tris-HCl (pH 8.0), 150 mM NaCl; tapping mode
[3] = biological target: human proteasome α7 subunit, wild type (self-assembled homo-tetradecamer) (human) (UniProt P25788); assay: high-speed atomic force microscopy (HS-AFM); α7 alone adsorbed on bare mica; 20 mM Tris-HCl (pH 8.0), 150 mM NaCl; tapping mode

| dwell time of the bound state [1] | percent of oligomers seen as double rings [2] | stoichiometry N [2] | percent of oligomers seen as double rings [3] | Substance |
| --- | --- | --- | --- | --- |
| > 100 s | – | – | – | human proteasome α6 subunit, short isoform (from UniProt P25786 1-263) (natural protein) |
| – | 21% | 14 and 7 | 67% | human proteasome α7 subunit, wild type (self-assembled homo-tetradecamer) (from UniProt P25788 1-255) (natural protein) |
